One experiment concerns the target HLA-B*73:01. The experiment is described as follows: IEDB peptide-MHC binding, purified MHC/competitive/fluorescence; filed as Kd, often an IC50 or EC50 that approximates it; ≥ and ≤ were set here for values at or beyond the usual limits of such assays. To be noted: source organism: Yersinia enterocolitica subsp. enterocolitica 8081.
In experiment [1] the target is HLA-A*29:02. The experiment is described as follows: IEDB peptide-MHC binding, purified MHC/competitive/radioactivity; ≥ and ≤ were set here for values at or beyond the usual limits of such assays. As to conditions: source organism: Human papillomavirus 16.
Another experiment has as its target HLA-A*24:02. As to the kind of experiment: IEDB peptide-MHC binding, cellular MHC/competitive/fluorescence; ≥ and ≤ were set here for values at or beyond the usual limits of such assays. To be noted: source organism: Human herpesvirus 5 strain AD169.
Another experiment addresses HLA-B*15:02. As to the kind of experiment: IEDB peptide-MHC binding, purified MHC/competitive/fluorescence; filed as Kd, often an IC50 or EC50 that approximates it; ≥ and ≤ were set here for values at or beyond the usual limits of such assays.
In another experiment the target is HLA-A*31:01. The experiment is described as follows: IEDB peptide-MHC binding, purified MHC/direct/fluorescence; filed as Kd, often an IC50 or EC50 that approximates it; ≥ and ≤ were set here for values at or beyond the usual limits of such assays. As to conditions: source organism: Pasteurella multocida.
Another experiment deals with HLA-B*58:01. The experiment is described as above. To be noted: source organism: Pasteurella multocida.
For experiment [2], the target named is HLA-B*35:01. The experiment is described as above. To be noted: source organism: Pasteurella multocida.
A further experiment concerns the target HLA-B*15:01. The description is as above. To be noted: source organism: Pasteurella multocida.
The target of the next experiment is HLA-A*69:01. The experiment is described as above. As to conditions: source organism: Pasteurella multocida.
For experiment [3], the target named is HLA-A*02:01. The description is as above. As to conditions: source organism: Pasteurella multocida.
The target in experiment [4] is HLA-B*27:05. The description is as above. As to conditions: source organism: Pasteurella multocida.
Experiment [5] deals with HLA-A*26:01. Described as above. To be noted: source organism: Pasteurella multocida.
The next experiment concerns the target HLA-A*01:01. Described as above. As to conditions: source organism: Pasteurella multocida.
Another experiment addresses HLA-B*40:01. The description is as above. To be noted: source organism: Pasteurella multocida.
The target of another experiment is HLA-A*11:01. The experiment is described as above. As to conditions: source organism: Pasteurella multocida.
The target of the next experiment is HLA-A*03:01. The description is as above. To be noted: source organism: Pasteurella multocida.
The target of the next experiment is HLA-B*07:02. The description is as above. As to conditions: source organism: Pasteurella multocida.
The next experiment deals with HLA-B*08:01. Described as above. As to conditions: source organism: Pasteurella multocida.
The target of a further experiment is HLA-B*14:02. Described as above. To be noted: source organism: Homo sapiens.
Experiment [6] deals with HLA-B*27:05. The experiment is described as follows: IEDB peptide-MHC binding, purified MHC/competitive/fluorescence; ≥ and ≤ were set here for values at or beyond the usual limits of such assays. To be noted: source organism: hepatitis C virus genotype 1a.
The next experiment has as its target HLA-B*46:01. As to the kind of experiment: IEDB peptide-MHC binding, cellular MHC/competitive/fluorescence; ≥ and ≤ were set here for values at or beyond the usual limits of such assays. To be noted: source organism: Human herpesvirus 4 strain B95-8.
In another experiment the target is HLA-B*27:04. Described as above. As to conditions: source organism: Human herpesvirus 4 strain B95-8.
The target in the next experiment is HLA-A*68:23. As to the kind of experiment: IEDB peptide-MHC binding, purified MHC/competitive/fluorescence; filed as Kd, often an IC50 or EC50 that approximates it; ≥ and ≤ were set here for values at or beyond the usual limits of such assays. To be noted: source organism: Burkholderia pseudomallei 406e.
Another experiment addresses HLA-B*15:42. Described as above.
For experiment [7], the target named is HLA-A*29:02. Described as above.
The target of another experiment is HLA-B*83:01. The experiment is described as above.
For the next experiment, the target named is HLA-B*40:13. The description is as above.
Another experiment deals with HLA-A*32:15. The description is as above.
The next experiment addresses HLA-B*27:20. The experiment is described as above.
Experiment [8] addresses HLA-C*06:02. The experiment is described as above. As to conditions: source organism: Burkholderia pseudomallei 406e.
In the next experiment the target is HLA-B*45:06. The description is as above.
A further experiment has as its target HLA-C*07:02. The experiment is described as follows: IEDB peptide-MHC binding, purified MHC/direct/fluorescence; filed as Kd, often an IC50 or EC50 that approximates it; ≥ and ≤ were set here for values at or beyond the usual limits of such assays. To be noted: source organism: Burkholderia pseudomallei 406e.
The target of experiment [9] is HLA-C*14:02. The experiment is described as above. To be noted: source organism: Burkholderia pseudomallei 406e.
The next experiment has as its target HLA-C*15:02. Described as above. To be noted: source organism: Burkholderia pseudomallei 406e.
In experiment [10] the target is HLA-B*35:01. The experiment is described as follows: IEDB peptide-MHC binding, cellular MHC/competitive/fluorescence; ≥ and ≤ were set here for values at or beyond the usual limits of such assays. As to conditions: source organism: Mycobacterium tuberculosis H37Rv.
The target of a further experiment is HLA-A*03:19. The experiment is described as follows: IEDB peptide-MHC binding, purified MHC/competitive/fluorescence; filed as Kd, often an IC50 or EC50 that approximates it; ≥ and ≤ were set here for values at or beyond the usual limits of such assays. To be noted: source organism: Shigella boydii CDC 3083-94.
For a further experiment, the target named is HLA-B*51:01. Described as above. As to conditions: source organism: Shigella boydii CDC 3083-94.
The target of the next experiment is HLA-A*02:19. Described as above. As to conditions: source organism: Shigella boydii CDC 3083-94.
A further experiment concerns the target HLA-B*18:01. The description is as above. As to conditions: source organism: Shigella boydii CDC 3083-94.
Experiment [11] deals with HLA-C*14:02. The description is as above. As to conditions: source organism: Shigella boydii CDC 3083-94.
Another experiment has as its target HLA-A*32:07. Described as above. As to conditions: source organism: Shigella boydii CDC 3083-94.
Experiment [12] has as its target HLA-A*02:01. The experiment is described as above. As to conditions: source organism: Shigella boydii CDC 3083-94.
The target in experiment [13] is HLA-A*26:01. The experiment is described as above. As to conditions: source organism: Shigella boydii CDC 3083-94.
The target of a further experiment is HLA-B*57:01. The description is as above. As to conditions: source organism: Shigella boydii CDC 3083-94.
The next experiment concerns the target HLA-B*27:03. The description is as above. As to conditions: source organism: Shigella boydii CDC 3083-94.
Experiment [14] has as its target HLA-C*06:02. The experiment is described as follows: IEDB peptide-MHC binding, purified MHC/direct/fluorescence; filed as Kd, often an IC50 or EC50 that approximates it; ≥ and ≤ were set here for values at or beyond the usual limits of such assays. As to conditions: source organism: Shigella boydii CDC 3083-94.
Setting [15] is: source organism: Burkholderia pseudomallei 406e.
Where [16] appears, read: source organism: Shigella boydii CDC 3083-94.

Where only a bound is given, the exact number is not on record here.

As for WDYLVRHDA, the Kd – broadly, the free concentration of one partner at which half of the binding sites on the other are occupied at equilibrium, for simple one-to-one binding – in the experiment with HLA-B*73:01 turned out to be 4500 nM.
In the case of IFVYIPLFL, the IC50 (as a rule, the concentration that gives 50% inhibition) with HLA-A*29:02 [1] worked out at 444 nM.
In turn, VFPTKDVAL displayed an IC50 in the experiment with HLA-A*24:02 of at least 333000 nM.
As for SQLEMCEKY, the Kd is 74.4 nM with HLA-B*15:02 (source organism: Pasteurella multocida subsp. multocida str. Pm70); at least 20000 nM with HLA-A*31:01; at least 20000 nM in the experiment with HLA-B*58:01; 121 nM with HLA-B*35:01 [2]; 299 nM with HLA-B*15:01; at least 20000 nM with HLA-A*69:01. The Kd with HLA-A*02:01 [3], with HLA-B*27:05 [4], in the experiment with HLA-A*26:01 [5], in the experiment with HLA-A*01:01, in the experiment with HLA-B*40:01 and with HLA-A*11:01 was at least 20000 nM throughout. The Kd with HLA-A*03:01, with HLA-B*07:02 and with HLA-B*08:01 was at least 20000 nM in each case.
The sequence NEVLHQEL yielded a Kd with HLA-B*14:02 of 294 nM.
Turning to MQLPQGGAF, in the experiment with HLA-B*15:02 (source organism: Burkholderia pseudomallei K96243), the dissociation constant Kd was 23.5 nM.
In the case of GKAVICGKY, the IC50 with HLA-B*27:05 [6] worked out at 4670 nM.
Turning to HAMHISTGL, the IC50 in the experiment with HLA-B*46:01 worked out at 5000 nM.
Consider SRRTSRPNR, for which the IC50 in the experiment with HLA-B*27:04 stood at 10000 nM.
As to MSWGWRLPF, the Kd in the experiment with HLA-A*68:23 is 80.2 nM; with HLA-B*15:42 (setting [15]), at least 5000 nM; in the experiment with HLA-A*29:02 [7] (setting [15]), 16.1 nM; in the experiment with HLA-B*83:01 (setting [15]), 5920 nM; in the experiment with HLA-B*40:13 (setting [15]), 223 nM; with HLA-A*32:15 (setting [15]), 5 nM. Further, the dissociation constant (Kd) with HLA-B*27:20 (setting [15]) was 49.7 nM; with HLA-C*06:02 [8] it was 387 nM; with HLA-B*45:06 (setting [15]), at least 5000 nM; with HLA-C*07:02, 248 nM; in the experiment with HLA-C*14:02 [9] it was 286 nM; in the experiment with HLA-C*15:02, 1720 nM.
MPVGGQSSFY gave an IC50 in the experiment with HLA-B*35:01 [10] of 300 nM.
Consider GMMRWCMPV, for which the Kd in the experiment with HLA-A*03:19 was 1130 nM; in the experiment with HLA-B*51:01 it was at least 20000 nM; with HLA-B*15:42 (setting [16]), 16900 nM; in the experiment with HLA-A*02:19, 0.2 nM; with HLA-A*29:02 [7] (setting [16]), 51.5 nM; with HLA-B*18:01, at least 20000 nM. In addition, the Kd is 93.6 nM with HLA-C*14:02 [11]; 5.2 nM with HLA-A*32:07; at most 0.1 nM in the experiment with HLA-A*02:01 [12]; at least 20000 nM with HLA-A*26:01 [13]; at least 5000 nM with HLA-B*83:01 (setting [16]); 201 nM with HLA-B*40:13 (setting [16]). Also, the Kd in the experiment with HLA-A*32:15 (setting [16]) was 813 nM; in the experiment with HLA-B*27:20 (setting [16]), 0.4 nM; with HLA-B*57:01, at least 20000 nM; in the experiment with HLA-B*45:06 (setting [16]), 69.2 nM; in the experiment with HLA-B*27:03 it was at least 20000 nM; with HLA-C*06:02 [14] it was at least 20000 nM.

The values are drawn from the Immune Epitope Database (IEDB).
